Laboratory results: patent publication US12492490 (University of California, dated 2025)

B1: HCA-S1 (antibody, V domains shown)
VH: QVQLQESGGGLVQPGGSLRLSCAASGFTFSSYAMHWVRQAPGKGLEWVAVISYDGSNKYYADSVKGRFTISRDNSKNTLYLQMNSLRAEDTAVYYCARFSSGWYYFDYWGQGTLVTVSS
VL: DIQMTQSPSFLSASVGDRITITCRASHDISSYFAWYQQKPGKAPKPLIYAASTLQSGVPSRFSGSGSGTEFTLTISSLQPEDFATYYCQQLGSYPLTFGGGTKLEIK
notes: also called IgG HCA-S1
B2: HCA-M1 (antibody, V domains shown)
VH: QVQLVESGGGVVQPGRSLRLSCAASGFTFSSYAMHWVRQAPGKGLEWVAVISYDGSNKYYADSVKGRFTISRDNSKNTLYLQMNSLRAEDTAVYYCARAPAYSYGPFDYWGQGTLVTVSS
VL: SSELTQDPAVSVALGQTVRITCQGDSLRSYYASWYQQKPGQAPVLVIYGKNNRPSGIPDRFSGSSSGNTASLTITGAQAEDEADYYCHSRDSSGTHLRVFGGGTKVTVL
notes: also called IgG HCA-M1

Target: T1, human ephrin type-A receptor 2 (EphA2) (human, UniProt P29317 24-976)
T1 construct: whole, on cells; also called NP_004422
T1 sequence (P29317 24-976): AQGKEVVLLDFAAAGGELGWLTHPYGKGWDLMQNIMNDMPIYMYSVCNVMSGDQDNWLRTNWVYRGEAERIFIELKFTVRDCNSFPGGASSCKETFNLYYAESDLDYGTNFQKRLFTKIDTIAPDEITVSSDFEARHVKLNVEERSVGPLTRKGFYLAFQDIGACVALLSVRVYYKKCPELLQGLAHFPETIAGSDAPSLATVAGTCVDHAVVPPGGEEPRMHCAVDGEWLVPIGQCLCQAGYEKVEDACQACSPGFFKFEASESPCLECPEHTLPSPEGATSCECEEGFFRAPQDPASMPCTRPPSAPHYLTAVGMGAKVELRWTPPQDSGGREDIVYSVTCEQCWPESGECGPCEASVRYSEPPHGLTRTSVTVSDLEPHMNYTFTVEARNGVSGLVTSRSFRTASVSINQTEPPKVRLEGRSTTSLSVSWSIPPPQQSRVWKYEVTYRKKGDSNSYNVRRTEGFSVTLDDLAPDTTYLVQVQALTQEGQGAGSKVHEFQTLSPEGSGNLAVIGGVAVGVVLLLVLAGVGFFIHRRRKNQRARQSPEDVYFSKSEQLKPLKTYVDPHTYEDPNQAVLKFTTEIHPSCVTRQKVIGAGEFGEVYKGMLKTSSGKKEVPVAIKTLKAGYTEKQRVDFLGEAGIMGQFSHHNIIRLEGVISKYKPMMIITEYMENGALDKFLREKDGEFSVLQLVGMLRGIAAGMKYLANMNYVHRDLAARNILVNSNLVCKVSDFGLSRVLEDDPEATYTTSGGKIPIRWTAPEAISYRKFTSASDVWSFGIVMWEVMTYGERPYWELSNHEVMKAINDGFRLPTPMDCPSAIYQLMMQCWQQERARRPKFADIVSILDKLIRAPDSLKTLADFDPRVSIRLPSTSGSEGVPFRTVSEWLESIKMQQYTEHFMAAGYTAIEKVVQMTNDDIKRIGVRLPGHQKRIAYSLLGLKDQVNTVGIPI
Assay: not described

Binder	binding result
B1	no binding
B2	no binding
